Assay results reported in article doi:10.1101/2022.01.13.476221.
* marks the point of attachment. Biotin = O=C1N[C@H]2[C@H](CS[C@H]2CCCCC(=O)*)N1

Tests used:
[1] = target: T1, unphosphorylated human MST2-KL (kinase-linker, residues 1-433) (human) (UniProt Q13188)
T1 sequence: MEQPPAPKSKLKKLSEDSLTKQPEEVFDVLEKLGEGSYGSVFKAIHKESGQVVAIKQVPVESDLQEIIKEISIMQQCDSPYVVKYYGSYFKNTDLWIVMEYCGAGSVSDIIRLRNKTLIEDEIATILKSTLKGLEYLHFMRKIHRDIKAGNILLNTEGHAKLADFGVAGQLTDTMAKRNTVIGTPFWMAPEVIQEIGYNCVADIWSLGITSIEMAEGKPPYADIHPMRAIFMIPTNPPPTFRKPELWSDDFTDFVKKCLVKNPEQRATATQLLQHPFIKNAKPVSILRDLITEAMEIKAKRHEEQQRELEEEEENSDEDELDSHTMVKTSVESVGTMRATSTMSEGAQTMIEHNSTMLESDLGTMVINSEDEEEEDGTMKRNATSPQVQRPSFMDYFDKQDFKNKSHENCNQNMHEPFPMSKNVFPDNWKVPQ

[2] = target: T2, unphosphorylated human MST2-FL (residues 1-484) (human) (UniProt Q13188)
T2 sequence: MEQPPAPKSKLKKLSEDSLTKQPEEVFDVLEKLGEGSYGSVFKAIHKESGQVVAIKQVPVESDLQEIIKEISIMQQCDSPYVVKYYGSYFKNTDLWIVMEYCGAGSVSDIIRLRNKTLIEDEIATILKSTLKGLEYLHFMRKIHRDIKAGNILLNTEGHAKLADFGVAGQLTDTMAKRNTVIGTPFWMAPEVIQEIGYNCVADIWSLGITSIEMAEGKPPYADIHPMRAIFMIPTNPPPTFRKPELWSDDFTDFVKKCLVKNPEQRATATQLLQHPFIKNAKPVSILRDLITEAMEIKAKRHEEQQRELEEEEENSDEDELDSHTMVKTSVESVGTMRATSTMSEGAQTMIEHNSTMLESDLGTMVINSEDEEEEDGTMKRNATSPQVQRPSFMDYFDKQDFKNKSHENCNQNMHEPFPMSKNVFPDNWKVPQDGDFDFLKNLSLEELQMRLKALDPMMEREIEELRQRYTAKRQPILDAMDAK

[3] = target: T3, unphosphorylated human MST2-K (kinase domain, residues 1-314) (human) (UniProt Q13188)
T3 sequence: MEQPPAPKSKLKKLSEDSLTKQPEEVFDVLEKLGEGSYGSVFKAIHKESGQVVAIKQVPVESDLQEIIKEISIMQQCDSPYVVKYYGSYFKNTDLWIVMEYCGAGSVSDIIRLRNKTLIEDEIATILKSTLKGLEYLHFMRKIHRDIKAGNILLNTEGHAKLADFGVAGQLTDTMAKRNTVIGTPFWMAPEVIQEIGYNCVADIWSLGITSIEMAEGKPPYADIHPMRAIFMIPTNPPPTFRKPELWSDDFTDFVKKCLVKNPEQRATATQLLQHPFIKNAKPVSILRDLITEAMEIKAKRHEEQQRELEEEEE

B1: biotinylated peptide substrate Biotin-…-NH2 (peptide)
peptide: Biotin-GGGENWYNTLKRKK-NH2
SMILES: CC(C)C[C@H](NC(=O)[C@@H](NC(=O)[C@H](CC(N)=O)NC(=O)[C@H](Cc1ccc(O)cc1)NC(=O)[C@H](Cc1c[nH]c2ccccc12)NC(=O)[C@H](CC(N)=O)NC(=O)[C@H](CCC(=O)O)NC(=O)CNC(=O)CNC(=O)CNC(=O)CCCC[C@@H]1SC[C@@H]2NC(=O)N[C@@H]21)[C@@H](C)O)C(=O)N[C@@H](CCCCN)C(=O)N[C@@H](CCCNC(=N)N)C(=O)N[C@@H](CCCCN)C(=O)N[C@@H](CCCCN)C(N)=O
[1]
  Km^app (peptide), radiometric kinase assay, steady state, 30°C: 804 µM
[2]
  Km^app (peptide), radiometric kinase assay, steady state, 30°C: 139 µM
[3]
  Km^app (peptide), radiometric kinase assay, steady state, 30°C: 625 µM
